Results published in US20030036642, “Platelet derived growth factor (PDGF) nucleic acid ligand complexes” (published 2003).

Molecular target: PDGF-AB (A-chain/B-chain heterodimer) (Homo sapiens, UniProt P04085;P01127 P04085:87-211,P01127:82-190)
Assay: filter
Conditions: tags: R&D Systems, expressed in E. coli, carrier-free
Procedure: (§1) Determination of the apparent equilibrium dissociation constants and the dissociation rate constants. The binding of ssDNA ligands at low concentrations to varying concentrations of PDGF was determined by the nitrocellulose filter binding method as described (Green et al. (1995) Chemistry and Biology 2:683-695). […] All ssDNA ligands were heated at 90° C. in binding buffer at high dilution (≈1 nM) for 2 min and cooled on ice prior to further dilution into the protein solution. The binding mixtures were typically incubated for 15 min at 37° C. before partitioning on nitrocellulose filters.

PDGF-AB (A-chain/B-chain heterodimer), sequence (P01127 82-190, chain 2 of 2, other chains not shown): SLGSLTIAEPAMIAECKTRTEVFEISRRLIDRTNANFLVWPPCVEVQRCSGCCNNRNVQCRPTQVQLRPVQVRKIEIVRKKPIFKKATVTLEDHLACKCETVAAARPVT

Binder | binding signal
CACAGGCTACGGCACGTAGAGCATCACCATGATCCTGTGT (ssDNA, 2'-OMe C25,A26,C27,C28,A29; 3'-3' inverted T at nt 40) [1145] | 0.27 Kd ligand/Kd 36t
CACAGGCTACGGCACGTAGAGCATCACCATGATCCTGTGT (ssDNA, 2'-F C7; 3'-3' inverted T at nt 40) [1157] | 1 Kd ligand/Kd 36t
CACAGGCTACGGCACGTAGAGCATCACCATGATCCTGTGT (ssDNA, 2'-F C25; 3'-3' inverted T at nt 40) [1161] | 0.22 Kd ligand/Kd 36t
CACAGGCTACGGCACGTAGAGCATCACCATGATCCTGTGT (ssDNA, 2'-F C34; 3'-3' inverted T at nt 40) [1162] | 0.52 Kd ligand/Kd 36t
CACAGGCTACGGCACGTAGAGCATCACCATGATCCTGTGT (ssDNA, 2'-OMe C10,G11,G12,C13,A14; 3'-3' inverted T at nt 40) [EV3] | 1.5 Kd ligand/Kd 36t
CACAGGCTACGGCACGTAGAGCATCACCATGATCCTGTGT (ssDNA, 2'-OMe A20,G21,C22; 3'-3' inverted T at nt 40) [EV1] | 35.1 Kd ligand/Kd 36t
CACAGGCTACGGCACGTAGAGCATCACCATGATCCTGTGT (ssDNA, 2'-OMe C1,A2,C3,A4; 3'-3' inverted T at nt 40) [EV4] | 4.5 Kd ligand/Kd 36t
CACAGGCTACGGCACGTAGAGCATCACCATGATCCTGTGT (ssDNA, 2'-F C35; 3'-3' inverted T at nt 40) [1165] | 0.61 Kd ligand/Kd 36t
CACAGGCTACGGCACGTAGAGCATCACCATGATCCTGTGT (ssDNA, 2'-F C22; 3'-3' inverted T at nt 40) [1160] | 1.4 Kd ligand/Kd 36t
CACAGGCTACGGCACGTAGAGCATCACCATGATCCTGTGT (ssDNA, 2'-OMe G19,A20,G21,C22; 3'-3' inverted T at nt 40) [1149] | 2.9 Kd ligand/Kd 36t
CAGGCUACGGCACGTAGAGCAUCACCATGATCCUG (ssDNA, 2'-F U6,U22,C23,C32,C33; 2'-OMe C8,G9,G10,C11,A12,A24,C25,C26,A27,U34,G35; 3'-3' inverted T at nt 36) [1295] | 0.9 Kd ligand/Kd 36t
CAGGCUACGGCACGTAGAGCAUCACCATGATCCUG (ssDNA, 2'-F U6,U22,C23,C32,C33; 2'-OMe C8,G9,G10,C11,A12,G19,C20,A24,C25,C26,A27,U34,G35; 3'-3' inverted T at nt 36) [1328] | 2.2 Kd ligand/Kd 36t
CAGGCUACGGCACGTAGAGCAUCACCATGATCCUG (ssDNA, 2'-OMe C5,U6,A7,C8,G9,G10,C11,A12,U22,C23,A24,C25,C26,A27,C32,C33,U34,G35; 3'-3' inverted T at nt 36) [1304] | 607 Kd ligand/Kd 36t
CAGGCUACGGCACGTAGAGCAUCACCATGATCCUG (ssDNA, 2'-OMe C5,U6,C8,G9,G10,C11,A12,G19,U22,C23,A24,C25,C26,A27,C32,C33,U34,G35; 3'-3' inverted T at nt 36) [1306] | 4.4 Kd ligand/Kd 36t
CAGGCUACGGCACGTAGAGCAUCACCATGATCCUG (ssDNA, 2'-F U6,U22,C23,C32,C33; 2'-OMe A7,C8,G9,G10,C11,A12,G17,G19,A24,C25,C26,A27,U34,G35; 3'-3' inverted T at nt 36) [1374] | 1.5 Kd ligand/Kd 36t
CAGGCUACGGCACGTAGAGCAUCACCATGATCCUG (ssDNA, 2'-F U6,U22,C23,C32,C33; 2'-OMe C8,G9,G10,C11,A12,G19,A24,C25,C26,A27,U34,G35; 3'-3' inverted T at nt 36) [1327] | 0.63 Kd ligand/Kd 36t
CAGGCUACGGCACGTAGAGCAUCACCATGATCCUG (ssDNA, 2'-F U6,U22,C23,C32,C33; 2'-OMe C8,G9,G10,C11,A12,G17,G19,A24,C25,C26,A27,U34,G35; 3'-3' inverted T at nt 36) [1369] | 0.37 Kd ligand/Kd 36t
CAGGCUACGGCACGTAGAGCAUCACCATGATCCUG (ssDNA, 2'-F U6,U22,C23,C32,C33; 2'-OMe C8,G9,G10,C11,A12,G17,G19,C20,A24,C25,C26,A27,U34,G35; 3'-3' inverted T at nt 36) [1329] | 0.72 Kd ligand/Kd 36t
CAGGCUACGGCACGTAGAGCAUCACCATGATCCUG (ssDNA, 2'-F U6; 2'-OMe C8,G9,G10,C11,A12,U22,C23,A24,C25,C26,A27,C32,C33,U34,G35; 3'-3' inverted T at nt 36) [1303] | 5.8 Kd ligand/Kd 36t
CAGGCUACGGCACGTAGAGCAUCACCATGATCCUG (ssDNA, 2'-OMe C5,U6,C8,G9,G10,C11,A12,A18,U22,C23,A24,C25,C26,A27,C32,C33,U34,G35; 3'-3' inverted T at nt 36) [1305] | 196 Kd ligand/Kd 36t

Binder | binding signal
CAGGCUCGGCACGAGAGCAUCCCAGATCCUG (ssDNA, 2'-F U6,U20,C21,C28,C29; 2'-OMe C7,G8,G9,C10,A11,C22,C23,A24,U30,G31; 3'-3' inverted T at nt 32) [1297] | 2.9 Kd ligand/Kd 36t
CAGGCUCGGCACGAGAGCAUCACCATGATCCUG (ssDNA, 2'-F U6,U20,C21,C30,C31; 2'-OMe C7,G8,G9,C10,A11,A22,C23,C24,A25,U32,G33; 3'-3' inverted T at nt 34) [1296] | 2.1 Kd ligand/Kd 36t
CACAGGCUACGGCACGTAGAGCAUCACCATGATCCUGUG (ssDNA, 2'-F U8,U24,C25,C34,C35; 2'-OMe C10,G11,G12,C13,A14,A26,C27,C28,A29,U36,G37,U38,G39; 3'-3' inverted T at nt 40) [1266] | 1 Kd ligand/Kd 36t
CACAGGCTACGGCACGUAGAGCATCACCATGATCCTGTG (ssDNA, 2'-OMe C10,G11,G12,C13,A14,C15,G16,U17; 3'-3' inverted T at nt 40) [1074] | 3.1 Kd ligand/Kd 36t
CACAGGCTACGGCACGTAGAGCATCACCATGATCCTGTG (ssDNA, 2'-F U8; 3'-3' inverted T at nt 40) [1164] | 0.45 Kd ligand/Kd 36t
CACAGGCTACGGCACGTAGAGCATCACCAUGATCCTGTG (ssDNA, 2'-OMe A26,C27,C28,A29,U30; 3'-3' inverted T at nt 40) [1075] | 10 Kd ligand/Kd 36t
CACAGGCTACGGCACGTAGAGCATCACCATGATCCUGUG (ssDNA, 2'-OMe C10,G11,G12,C13,A14,C25,A26,C27,C28,A29,U36,G37,U38,G39; 2'-F C34; 3'-3' inverted T at nt 40) [1265] | 1.4 Kd ligand/Kd 36t
CACAGGCUACGGCACGTAGAGCATCACCATGATCCUGUG (ssDNA, 2'-F U8,C34; 2'-OMe C10,G11,G12,C13,A14,C25,A26,C27,C28,A29,U36,G37,U38,G39; 3'-3' inverted T at nt 40) [1269] | 0.87 Kd ligand/Kd 36t
CACAGGCTACGGCACGTAGAGCATCACCATGAUCCUGTG (ssDNA, 2'-OMe G31,A32,U33,C34,C35,U36; 3'-3' inverted T at nt 40) [1144] | 994 Kd ligand/Kd 36t
CACAGGCTACGGCACGTAGAGCATCACCATGATCCUGUG (ssDNA, 2'-OMe U36,G37,U38,G39; 3'-3' inverted T at nt 40) [EV5] | 2.3 Kd ligand/Kd 36t
CACAGGCTACGGCACGTAGAGCATCACCATGATCCTGUG (ssDNA, 2'-OMe C10,G11,G12,C13,A14,A26,C27,C28,A29,G37,U38,G39; 2'-F C34; 3'-3' inverted T at nt 40) [1257] | 1.3 Kd ligand/Kd 36t
CACAGGCTACGGCACGUAGAGCATCACCAUGATCCTGTG (ssDNA, 2'-OMe C1,A2,C3,C10,G11,G12,C13,A14,C15,G16,U17,A26,C27,C28,A29,U30; 3'-3' inverted T at nt 40) [1076] | 440 Kd ligand/Kd 36t
CACAGGCTACGGCACGTAGAGCATCACCATGATCCTGTG (ssDNA, 2'-F U17; 3'-3' inverted T at nt 40) [1166] | 0.76 Kd ligand/Kd 36t
CACAGGCTACGGCACGUAGAGCATCACCATGATCCTGTG (ssDNA, 2'-OMe G12,C13,A14,C15,G16,U17; 3'-3' inverted T at nt 40) [EV2] | 5.3 Kd ligand/Kd 36t
CACAGGCTACGGCACGUAGAGCAUCACCATGATCCTGTG (ssDNA, 2'-OMe U17,A23,U24; 3'-3' inverted T at nt 40) [1142] | 12.9 Kd ligand/Kd 36t
CACAGGCTACGGCACGTAGAGCATCACCATGATCCTGTG (ssDNA, 2'-F U24; 3'-3' inverted T at nt 40) [1159] | 0.37 Kd ligand/Kd 36t
CACAGGCUACGGCACGTAGAGCATCACCATGATCCTGTG (ssDNA, 2'-OMe A4,G5,G6,C7,U8,A9; 3'-3' inverted T at nt 40) [1148] | 281 Kd ligand/Kd 36t
CACAGGCTACGGCACGTAGAGCATCACCATGATCCUGUG (ssDNA, 2'-OMe C10,G11,G12,C13,A14,C25,A26,C27,C28,A29,U36,G37,U38,G39; 2'-F C34,C35; 3'-3' inverted T at nt 40) [1267] | 4.2 Kd ligand/Kd 36t
CACAGGCTACGGCACGTAGAGCATCACCATGATCCTGTG (ssDNA, 2'-F U33; 3'-3' inverted T at nt 40) [1158] | 2.4 Kd ligand/Kd 36t
CACAGGCTACGGCACGTAGAGCATCACCATGATCCTGTG (ssDNA, 2'-F U30; 3'-3' inverted T at nt 40) [1163] | 1.3 Kd ligand/Kd 36t

Molecular target: T1, PDGF-BB (mature B-chain homodimer) (Homo sapiens, UniProt P01127 P01127:82-190)
Assay: inhibition; 125I-PDGF-BB binding to alpha-receptor on PAE cells, 4 C
Conditions: tags: R&D Systems, expressed in E. coli, carrier-free; chain copies: 2 B-chains (stated as BB isoform); three-way helix junction
Procedure: Receptor Binding Assay. The binding of ′ ²⁵I-PDGF-AA and ¹²⁵I-PDGF-BB to porcine aortic endothelial (PAE) cells transfected with PDGF α- or β-receptors were performed as described (Heldin et al., (1988) EMBO J. 7:1387-1394). Different concentrations of DNA ligands were added to the cell culture (1.5 cm²) in 0.2 ml of phosphate buffered saline supplemented with 1 mg bovine serum albumin per ml together with ¹²⁵I-PDGF-AA (2 ng, 100,000 cpm) or ¹²⁵I-PDGF-BB (2 ng, 100,000 cpm). After incubation at 4° C. for 90 min, the cell cultures were washed and cell associated radioactivity determined in a g-counter (Heldin et al., (1988) EMBO J. 7:1387-1394).

T1 sequence (P01127 82-190, one chain of several): as the sequence (P01127 82-190, chain 2 of 2, other chains not shown) above

Binder | IC50
CACAGGCTACGGCACGTAGAGCATCACCATGATCCTGTGT (ssDNA, 3'-3' inverted T at nt 40) [36t] | ~1 nM
TGGGAGGGCGCGTTCTTCGTGGTTACTTTTAGTCCCGT (ssDNA, 3'-3' inverted T at nt 38) [20t] | ~1 nM
TACTCAGGGCACTGCAAGCAATTGTGGTCCCAATGGGCTGAGTAT (ssDNA, 3'-3' inverted T at nt 45) [41t] | ~1 nM

Molecular target: T1, PDGF-BB (mature B-chain homodimer)
Assay: filter; printed as 0.159 ± 13 pM, unit evidently nM ± pM
Conditions: tags: R&D Systems, expressed in E. coli, carrier-free; chain copies: 2 B-chains (stated as BB isoform)
Procedure: as §1

Binder | Kd
CAGGCTACGGCACGTAGAGCATCACCATGATCCTGT (ssDNA, 3'-3' inverted T at nt 36) [36ta] | 0.159 nM
